Measured values: patent US7998923B2, “Bioactivation of particles” (The Regents of the University of California, priority 2002, dated 2011)
Square brackets hold non-standard residues; d marks the D form. Cha = N[C@@H](CC1CCCCC1)C(=O)O

Experiment: solubilization assay of CdSe/ZnS quantum dots with bioactivation peptides
Format: physicochemical
Details: peptide coated CdSe/ZnS quantum dots, diluted from DMSO
Procedure: A non-limiting example of the MRP is Cha-C-C-Cha-C-C-Cha-C-C-Cha (SEQ. ID. NO. 1) with Cha standing for Cyclohexyl alanine and C for cysteine. […] All synthesis used N-Boc or F-moc protecting groups and sequences may be N-acetylated and/or C-carboxylated. The bioactivation peptides are added directly onto the particles and allowed to form a good dispersion of the quantum dots in DMSO and subsequently yielded stable and highly monodisperse dilutions of the nanocrystals in water and buffer. Stability in water and buffers is enhanced by the addition of a hydrophilic sequence at the N-terminus of the Cha-C-C-Cha . . . sequence. The following sequence was used: G-S-E-S-G-G-S-E-S-G-Cha-C-C-Cha-C-C-Cha-C-C-Cha (SEQ. ID. NO. 2).
This substitution led to aggregations of particles during the reaction and thus lack of migration on electrophoresis gels. Similarly replacing the cysteines in the binding clusters with alanine gave unstable particles that flocculate rapidly after solubilization in aqueous solvents. […]

Substance: NH2-G-S-E-S-G-G-S-E-S-G-Cha-C-C-Cha-C-C-Cha-C-C-Cha-Carboxamide (H-GSESGGSESG[Cha]CC[Cha]CC[Cha]CC[Cha]-NH2; cysteine pairing not given here) [ChaCha E swimmer]
- stability in water and buffers: enhanced
